B1: PIP5K1C peptide 642-657 (Phosphatidylinositol 4-phosphate 5-kinase type-1 gamma), 16-mer library wild type / TLN1 PTB (TLN1 Phosphotyrosine-binding (PTB) domain, residues 309-401) (parent complex)
chain 1: TDERSWVYSPLHYSAQ
chain 2: GVSFFLVKEKMKGKNKLVPRLLGITKECVMRVDEKTKEVIQEWNLTNIKRWAASPKSFTLDFGDYQDGYYSVQTTEGEQIAQLIAGYIDIILK
B2: RNF115 peptide 67-82 (E3 ubiquitin-protein ligase RNF115), 16-mer library wild type / MDM2 SWIB (MDM2 SWIB/MDM2 domain, residues 17-125) (parent complex)
chain 1: TTTHFAELWGHLDHTM
chain 2: SQIPASEQETLVRPKPLLLKLLKSVGAQKDTYTMKEVLFYLGQYIMTKRLYDEKQQHIVYCSNDLLGDLFGVPSFSVKEHRKIYTMIYRNLVVVNQQESSDSGTSVSEN

Variants of: B1
Test: proteomic peptide phage display deep mutational scan (ProP-PD DMS): M13 P8 16-mer library selected against immobilised GST-tagged bait for four days (rounds), NGS of the eluted pools per day and pseudo-replica; bait immobilised on MaxiSorp plates (10 µg), library pre-cleared on GST, 2 h binding at 4 °C, five washes; one round per day, days 1-4; value from days 2 and 3

Compared with chain 1 A15N, chain 1 A15E is higher in screen value: 0.000427 average fractional NGS count over selection days 2 and 3 (reads of this peptide / all reads for the bait, averaged over … for the first, 0.00381 average fractional NGS count over selection days 2 and 3 (reads of this peptide / all reads for the bait, averaged over … for the second.

Compared with chain 1 T1A, chain 1 T1M is lower in screen value: 0.00341 average fractional NGS count over selection days 2 and 3 (reads of this peptide / all reads for the bait, averaged over … for the first, 0.000328 average fractional NGS count over selection days 2 and 3 (reads of this peptide / all reads for the bait, averaged over … for the second.

Compared with chain 1 S9M, chain 1 Y13P is higher in screen value: 0.000276 average fractional NGS count over selection days 2 and 3 (reads of this peptide / all reads for the bait, averaged over … for the first, 0.00124 average fractional NGS count over selection days 2 and 3 (reads of this peptide / all reads for the bait, averaged over … for the second.

Variants of: B2
Test: as above

Compared with chain 1 A6I, chain 1 A6Q is higher in screen value: 0.000155 average fractional NGS count over selection days 2 and 3 (reads of this peptide / all reads for the bait, averaged over … for the first, 0.000266 average fractional NGS count over selection days 2 and 3 (reads of this peptide / all reads for the bait, averaged over … for the second.

Going from chain 1 A6M to chain 1 A6E, the screen value falls from 0.00215 average fractional NGS count over selection days 2 and 3 (reads of this peptide / all reads for the bait, averaged over … to 0.000746 average fractional NGS count over selection days 2 and 3 (reads of this peptide / all reads for the bait, averaged over ….

First: chain 1 A6H
Second: chain 1 A6S
The screen value of the first is lower: 0.00017 average fractional NGS count over selection days 2 and 3 (reads of this peptide / all reads for the bait, averaged over … for the first, 0.000754 average fractional NGS count over selection days 2 and 3 (reads of this peptide / all reads for the bait, averaged over … for the second.

Going from chain 1 A6L to chain 1 T2H, the screen value falls from 0.00496 average fractional NGS count over selection days 2 and 3 (reads of this peptide / all reads for the bait, averaged over … to 0.000527 average fractional NGS count over selection days 2 and 3 (reads of this peptide / all reads for the bait, averaged over ….

First: chain 1 T2Q
Second: chain 1 T2G
The screen value of the first is higher: 0.00139 average fractional NGS count over selection days 2 and 3 (reads of this peptide / all reads for the bait, averaged over … for the first, 0.00135 average fractional NGS count over selection days 2 and 3 (reads of this peptide / all reads for the bait, averaged over … for the second.

Compared with chain 1 T2A, chain 1 T2I is higher in screen value: 0.00136 average fractional NGS count over selection days 2 and 3 (reads of this peptide / all reads for the bait, averaged over … for the first, 0.00157 average fractional NGS count over selection days 2 and 3 (reads of this peptide / all reads for the bait, averaged over … for the second.

Compared with chain 1 T2E, chain 1 T2V is lower in screen value: 0.0056 average fractional NGS count over selection days 2 and 3 (reads of this peptide / all reads for the bait, averaged over … for the first, 0.000589 average fractional NGS count over selection days 2 and 3 (reads of this peptide / all reads for the bait, averaged over … for the second.

Compared with chain 1 T2M, chain 1 T2P is higher in screen value: 0.000321 average fractional NGS count over selection days 2 and 3 (reads of this peptide / all reads for the bait, averaged over … for the first, 0.000494 average fractional NGS count over selection days 2 and 3 (reads of this peptide / all reads for the bait, averaged over … for the second.

Compared with chain 1 T2L, chain 1 T2D is higher in screen value: 0.000556 average fractional NGS count over selection days 2 and 3 (reads of this peptide / all reads for the bait, averaged over … for the first, 0.00164 average fractional NGS count over selection days 2 and 3 (reads of this peptide / all reads for the bait, averaged over … for the second.

First: chain 1 T2S
Second: chain 1 T2Y
The screen value of the first is higher: 0.000484 average fractional NGS count over selection days 2 and 3 (reads of this peptide / all reads for the bait, averaged over … for the first, 0.000215 average fractional NGS count over selection days 2 and 3 (reads of this peptide / all reads for the bait, averaged over … for the second.

Going from chain 1 F5Q to chain 1 F5T, the screen value falls from 0.00091 average fractional NGS count over selection days 2 and 3 (reads of this peptide / all reads for the bait, averaged over … to 7.7e-05 average fractional NGS count over selection days 2 and 3 (reads of this peptide / all reads for the bait, averaged over ….

Going from chain 1 F5Y to chain 1 G10N, the screen value rises from 0.0001 average fractional NGS count over selection days 2 and 3 (reads of this peptide / all reads for the bait, averaged over … to 0.000457 average fractional NGS count over selection days 2 and 3 (reads of this peptide / all reads for the bait, averaged over ….

First: chain 1 G10S
Second: chain 1 G10Q
The screen value of the first is higher: 0.00615 average fractional NGS count over selection days 2 and 3 (reads of this peptide / all reads for the bait, averaged over … for the first, 0.000894 average fractional NGS count over selection days 2 and 3 (reads of this peptide / all reads for the bait, averaged over … for the second.

Compared with chain 1 G10M, chain 1 G10Y is lower in screen value: 0.00144 average fractional NGS count over selection days 2 and 3 (reads of this peptide / all reads for the bait, averaged over … for the first, 0.000227 average fractional NGS count over selection days 2 and 3 (reads of this peptide / all reads for the bait, averaged over … for the second.

Compared with chain 1 G10T, chain 1 G10A is higher in screen value: 0.000148 average fractional NGS count over selection days 2 and 3 (reads of this peptide / all reads for the bait, averaged over … for the first, 0.00678 average fractional NGS count over selection days 2 and 3 (reads of this peptide / all reads for the bait, averaged over … for the second.

Compared with chain 1 G10W, chain 1 G10I is lower in screen value: 0.000571 average fractional NGS count over selection days 2 and 3 (reads of this peptide / all reads for the bait, averaged over … for the first, 7.33e-05 average fractional NGS count over selection days 2 and 3 (reads of this peptide / all reads for the bait, averaged over … for the second.

Going from chain 1 G10L to chain 1 L8Y, the screen value rises from 0.000164 average fractional NGS count over selection days 2 and 3 (reads of this peptide / all reads for the bait, averaged over … to 0.0291 average fractional NGS count over selection days 2 and 3 (reads of this peptide / all reads for the bait, averaged over ….

Compared with chain 1 L8I, chain 1 L8H is higher in screen value: 7.89e-05 average fractional NGS count over selection days 2 and 3 (reads of this peptide / all reads for the bait, averaged over … for the first, 0.000131 average fractional NGS count over selection days 2 and 3 (reads of this peptide / all reads for the bait, averaged over … for the second.

Compared with chain 1 L8M, chain 1 L8W is higher in screen value: 0.000104 average fractional NGS count over selection days 2 and 3 (reads of this peptide / all reads for the bait, averaged over … for the first, 0.00339 average fractional NGS count over selection days 2 and 3 (reads of this peptide / all reads for the bait, averaged over … for the second.

First: chain 1 L8F
Second: chain 1 H4Y
The screen value of the first is lower: 0.000568 average fractional NGS count over selection days 2 and 3 (reads of this peptide / all reads for the bait, averaged over … for the first, 0.000766 average fractional NGS count over selection days 2 and 3 (reads of this peptide / all reads for the bait, averaged over … for the second.

Compared with chain 1 H4M, chain 1 H4P is lower in screen value: 0.000847 average fractional NGS count over selection days 2 and 3 (reads of this peptide / all reads for the bait, averaged over … for the first, 0.000821 average fractional NGS count over selection days 2 and 3 (reads of this peptide / all reads for the bait, averaged over … for the second.

First: chain 1 H4E
Second: chain 1 H4G
The screen value of the first is lower: 0.000591 average fractional NGS count over selection days 2 and 3 (reads of this peptide / all reads for the bait, averaged over … for the first, 0.00192 average fractional NGS count over selection days 2 and 3 (reads of this peptide / all reads for the bait, averaged over … for the second.

First: chain 1 H4S
Second: chain 1 H4N
The screen value of the first is higher: 0.0034 average fractional NGS count over selection days 2 and 3 (reads of this peptide / all reads for the bait, averaged over … for the first, 0.000308 average fractional NGS count over selection days 2 and 3 (reads of this peptide / all reads for the bait, averaged over … for the second.

First: chain 1 H4T
Second: chain 1 H4F
The screen value of the first is higher: 0.002 average fractional NGS count over selection days 2 and 3 (reads of this peptide / all reads for the bait, averaged over … for the first, 0.000236 average fractional NGS count over selection days 2 and 3 (reads of this peptide / all reads for the bait, averaged over … for the second.

Compared with chain 1 H4L, chain 1 H4V is lower in screen value: 0.000482 average fractional NGS count over selection days 2 and 3 (reads of this peptide / all reads for the bait, averaged over … for the first, 0.000238 average fractional NGS count over selection days 2 and 3 (reads of this peptide / all reads for the bait, averaged over … for the second.

Compared with chain 1 H4K, chain 1 H4Q is higher in screen value: 0.000298 average fractional NGS count over selection days 2 and 3 (reads of this peptide / all reads for the bait, averaged over … for the first, 0.00071 average fractional NGS count over selection days 2 and 3 (reads of this peptide / all reads for the bait, averaged over … for the second.

Going from chain 1 H4D to chain 1 H4I, the screen value rises from 0.000343 average fractional NGS count over selection days 2 and 3 (reads of this peptide / all reads for the bait, averaged over … to 0.000874 average fractional NGS count over selection days 2 and 3 (reads of this peptide / all reads for the bait, averaged over ….

Compared with chain 1 H14I, chain 1 H14F is lower in screen value: 0.00129 average fractional NGS count over selection days 2 and 3 (reads of this peptide / all reads for the bait, averaged over … for the first, 0.00117 average fractional NGS count over selection days 2 and 3 (reads of this peptide / all reads for the bait, averaged over … for the second.

First: chain 1 H14P
Second: chain 1 H14M
The screen value of the first is lower: 0.000471 average fractional NGS count over selection days 2 and 3 (reads of this peptide / all reads for the bait, averaged over … for the first, 0.00126 average fractional NGS count over selection days 2 and 3 (reads of this peptide / all reads for the bait, averaged over … for the second.

Going from chain 1 H14E to chain 1 H14S, the screen value rises from 9.03e-05 average fractional NGS count over selection days 2 and 3 (reads of this peptide / all reads for the bait, averaged over … to 0.00046 average fractional NGS count over selection days 2 and 3 (reads of this peptide / all reads for the bait, averaged over ….

Compared with chain 1 H14A, chain 1 H14T is lower in screen value: 0.00138 average fractional NGS count over selection days 2 and 3 (reads of this peptide / all reads for the bait, averaged over … for the first, 0.000601 average fractional NGS count over selection days 2 and 3 (reads of this peptide / all reads for the bait, averaged over … for the second.

Going from chain 1 H14Q to chain 1 H14W, the screen value rises from 0.000199 average fractional NGS count over selection days 2 and 3 (reads of this peptide / all reads for the bait, averaged over … to 0.00227 average fractional NGS count over selection days 2 and 3 (reads of this peptide / all reads for the bait, averaged over ….

Going from chain 1 H14L to chain 1 H14N, the screen value falls from 0.00317 average fractional NGS count over selection days 2 and 3 (reads of this peptide / all reads for the bait, averaged over … to 0.00027 average fractional NGS count over selection days 2 and 3 (reads of this peptide / all reads for the bait, averaged over ….

Compared with chain 1 H14V, chain 1 H14G is higher in screen value: 0.00211 average fractional NGS count over selection days 2 and 3 (reads of this peptide / all reads for the bait, averaged over … for the first, 0.00396 average fractional NGS count over selection days 2 and 3 (reads of this peptide / all reads for the bait, averaged over … for the second.

For chain 1 D13A, the screen value was 0.00127 average fractional NGS count over selection days 2 and 3 (reads of this peptide / all reads for the bait, averaged over ….

Source: PMC12102759 (2025)
